According to US10550165B2, “Peptide for inducing regeneration of tissue and use thereof” (STEMRIM INC., priority 2011, dated 2020):

How the values were obtained:
[1] = test system: human-derived bone marrow mesenchymal stem cells (hMSC); assay: Migration assay on human-derived bone marrow mesenchymal stem cells; type: cell-based; details: human HMGB1 fragments produced in E. coli, 2 μM, FIG. 21B
Description: Human HMGB1 fragments (2-215, 2-84, 2-44, 45-84, 85-169, 89-185, 89-195, and 89-205) were produced in E. coli and purified using appropriate columns in the same manner as described in Examples 14, 15, and 16 above. However, 89-215 was purified by the same method as used for 89-205 in Example 15.
Using human-derived bone marrow mesenchymal stem cells, each fragment was examined by the same migration assay performed on mouse-derived bone marrow mesenchymal stem cells (MSC-1) as described above. The fragments were used at a final concentration of 2 μM. The human-derived bone marrow mesenchymal stem cells used were hMSC (human Mesenchymal Stem Cell, Takara) at fourth passage. The growth medium used was a mesenchymal stem cell growth medium (MF medium, TOYOBO). The cells were cultured in an incubator under 5% CO2 at 37° C. The medium was changed with a fresh medium every two to four days. The cells were passaged when they reached 80% confluency.

[2] = test system: mouse bone marrow mesenchymal stem cell line (MSC-1 cells), PDGFRα-positive; assay: Migration assay (Boyden / 48-well chemotaxis chamber) on bone marrow mesenchymal stem cell line MSC-1; type: cell-based; details: for migration-promoting activity per equal mass, 2-215 taken as 1 / migration-promoting activity per molar concentration, 2-215 taken as 1: FIGS. 18C and 18D
Protocol: Cells of a mouse bone marrow mesenchymal stem cell line (MSC-1 cells, established by Tamai et al. of Osaka University (PDGFRα-positive cells in bone marrow are mobilized by high mobility group box 1 (HMGB1) to regenerate injured epithelia. (Tamai et al., Proc Natl Acad Sci USA. Apr. 4, 2011))) were detached from dishes using trypsin, and collected by centrifugation at 1200 rpm and 4° C. for 10 minutes. The resulting pellet was loosened and suspended at a cell concentration of 2.0×10^6 to 3.0×10^6 cells/ml by adding Dulbecco's Modified Eagle Medium (D-MEM) containing 10% fetal bovine serum (FBS). The recombinant protein and peptides produced in HEK293 were diluted with D-MEM containing 10% FBS. The negative control used was phosphate buffered saline (PBS). An acrylic Boyden chamber was used; cells of the mouse bone marrow mesenchymal stem cell line prepared at a cell concentration of 3×10^6 cells/ml were placed in its upper layer, while a diluted protein or peptide is added to the bottom layer. More specifically, a 28 μl aliquot of a protein or peptide solution was added to each well of the bottom plate of a 48-well chemotaxis chamber (NEURO PROBE 48WELL CHEMOTAXIS CHAMBER), and a polycarbonate membrane with 8 μm pores (Neuro Probe, Inc, Cat: 866-417-0014) was placed on the bottom plate. Then, an upper plate was placed on the membrane and screwed tightly. 50 μl of cells of the mouse bone marrow mesenchymal stem cell line after concentration adjustment were added to the upper plate wells. The chamber was placed in an incubator under 5% CO2 at 37° C. After four hours, the membrane was removed from the chamber and stained with Diff-Quik (Sysmex, Cat: 16920) to detect cells that migrated through membrane pores to the lower compartment.
The peptides listed below were custom synthesized using the solid phase method by Medical & Biological Laboratories (MBL). The peptides were synthesized based on the mouse HMGB1 sequence (SEQ ID NO: 3). Synthetic peptides described in subsequent Examples were also prepared based on the mouse HMGB1 sequence. • A synthetic peptide consisting of the amino acid sequence from positions 1 to 10 of HMGB1 (1-10); • a synthetic peptide consisting of the amino acid sequence from positions 1 to 34 of HMGB1 (1-34); • a synthetic peptide consisting of the amino acid sequence from positions 37 to 62 of HMGB1 (37-62); • a synthetic peptide consisting of the amino acid sequence from positions 27 to 62 of HMGB1 (27-62); • a synthetic peptide consisting of the amino acid sequence from positions 56 to 72 of HMGB1 (56-72); • a synthetic peptide consisting of the amino acid sequence from positions 11 to 20 of HMGB1 (11-20); • a synthetic peptide consisting of the amino acid sequence from positions 11 to 25 of HMGB1 (11-25); • a synthetic peptide consisting of the amino acid sequence from positions 11 to 30 of HMGB1 (11-30); • a synthetic peptide consisting of the amino acid sequence from positions 11 to 34 of HMGB1 (11-34); • a synthetic peptide consisting of the amino acid sequence from positions 11 to 44 of HMGB1 (11-44); • a synthetic peptide consisting of the amino acid sequence from positions 17 to 44 of HMGB1 (17-44); • a synthetic peptide consisting of the amino acid sequence from positions 1 to 25 of HMGB1 (1-25); and the whole mouse HMGB1 produced in HEK293 (1-215(HEK)) as a positive control were adjusted to 100 μg/ml and placed in the lower layer of a chemotaxis chamber to assess the migration-promoting activity on bone marrow mesenchymal stem cell line (MSC-1). Results
As positive controls, centrifuged supernatant of the skin of a one-day-old mouse (one individual) incubated in PBS at 4° C. for 12 hours, and the whole mouse HMGB1 (HMGB1(HEK_1-215)) produced in HEK293 were used. […]

[3] = human HMGB1 fragments produced in E. coli, 2 μM, FIG. 18B
[4] = human HMGB1 fragments produced in E. coli, 2 μM
[5] = human HMGB1 fragments 2-215, 2-205, 2-195, 2-185 produced in E. coli, 2 μM, FIG. 21A
[6] = human HMGB1 fragments 89-215, 89-205, 89-195, 89-185 and their Q column fractions, E. coli, 2 μM, FIGS. 19B and 19D

Molecule: 2-44: human HMGB1 fragment, positions 2 to 44, produced in E. coli (GKGDPKKPRGKMSSYAFFVQTCREEHKKKHPDASVNFSEFSKK; UniProt P09429 2-44, looked up, fragment)
- migration-promoting activity [1]: greater than human HMGB1 fragment (2-215)
- migration-promoting activity [2, 3]: showed migration-promoting activity on bone marrow mesenchymal stem cells
- migration-promoting activity per equal mass, 2-215 taken as 1 [2, 4]: 7.1 times
- migration-promoting activity per molar concentration, 2-215 taken as 1 [2, 4]: 1.82 times

Molecule: 45-84: peptide of positions 45 to 84 of mouse HMGB1, produced using HEK293 (CSERWKTMSAKEKGKFEDMAKADKARYEREMKTYIPPKGE; UniProt P63158 45-84, looked up, fragment)
- migration-promoting activity [1]: greater than human HMGB1 fragment (2-215)
- migration-promoting activity [2, 3]: showed migration-promoting activity on bone marrow mesenchymal stem cells
- migration-promoting activity per equal mass, 2-215 taken as 1 [2, 4]: 8.1 times
- migration-promoting activity per molar concentration, 2-215 taken as 1 [2, 4]: 2.04 times
- migration-promoting activity ([2]; protein and peptides produced using HEK293 (mouse HMGB1), 50 μg/ml, 4 h, FIG. 2A): showed migration-promoting activity

B1: 2-170: human HMGB1 fragment, positions 2 to 170, produced in E. coli (protein, UniProt P09429 2-170, looked up, fragment)
chain: GKGDPKKPRGKMSSYAFFVQTCREEHKKKHPDASVNFSEFSKKCSERWKTMSAKEKGKFEDMAKADKARYEREMKTYIPPKGETKKKFKDPNAPKRPPSAFFLFCSEYRPKIKGEHPGLSIGDVAKKLGEMWNNTAADDKQPYEKKAAKLKEKYEKDIAAYRAKGKPDA
- migration-promoting activity [2, 3]: showed migration-promoting activity on bone marrow mesenchymal stem cells

B2: 2-70: human HMGB1 fragment, positions 2 to 70, produced in E. coli (protein, UniProt P09429 2-70, looked up, fragment)
chain: GKGDPKKPRGKMSSYAFFVQTCREEHKKKHPDASVNFSEFSKKCSERWKTMSAKEKGKFEDMAKADKAR
- migration-promoting activity [2, 3]: showed migration-promoting activity on bone marrow mesenchymal stem cells

B3: 2-195: human HMGB1 fragment, amino acids of positions 2 to 195, produced in E. coli (protein, UniProt P09429 2-195, looked up, fragment)
chain: GKGDPKKPRGKMSSYAFFVQTCREEHKKKHPDASVNFSEFSKKCSERWKTMSAKEKGKFEDMAKADKARYEREMKTYIPPKGETKKKFKDPNAPKRPPSAFFLFCSEYRPKIKGEHPGLSIGDVAKKLGEMWNNTAADDKQPYEKKAAKLKEKYEKDIAAYRAKGKPDAAKKGVVKAEKSKKKKEEEEDEEDEE
- migration-promoting activity [2, 5]: stronger migration-promoting activity than fragments 2-215 and 2-205

B4: 2-81: human HMGB1 fragment, positions 2 to 81, produced in E. coli (protein, UniProt P09429 2-81, looked up, fragment)
chain: GKGDPKKPRGKMSSYAFFVQTCREEHKKKHPDASVNFSEFSKKCSERWKTMSAKEKGKFEDMAKADKARYEREMKTYIPP
- migration-promoting activity [2, 3]: showed migration-promoting activity on bone marrow mesenchymal stem cells

B5: 89-205: human HMGB1 fragment, positions 89 to 205, produced in E. coli (protein, UniProt P09429 89-205, looked up, fragment)
chain: FKDPNAPKRPPSAFFLFCSEYRPKIKGEHPGLSIGDVAKKLGEMWNNTAADDKQPYEKKAAKLKEKYEKDIAAYRAKGKPDAAKKGVVKAEKSKKKKEEEEDEEDEEDEEEEEDEED
- migration-promoting activity [2, 6]: weak migration-promoting activity

B6: 93-215: human HMGB1 fragment, positions 93 to 215, produced in E. coli (protein, UniProt P09429 93-215, looked up, fragment)
chain: NAPKRPPSAFFLFCSEYRPKIKGEHPGLSIGDVAKKLGEMWNNTAADDKQPYEKKAAKLKEKYEKDIAAYRAKGKPDAAKKGVVKAEKSKKKKEEEEDEEDEEDEEEEEDEEDEDEEEDDDDE
- migration-promoting activity [2, 3]: showed migration-promoting activity on bone marrow mesenchymal stem cells

B7: 2-185: human HMGB1 fragment, amino acids of positions 2 to 185, produced in E. coli (protein, UniProt P09429 2-185, looked up, fragment)
chain: GKGDPKKPRGKMSSYAFFVQTCREEHKKKHPDASVNFSEFSKKCSERWKTMSAKEKGKFEDMAKADKARYEREMKTYIPPKGETKKKFKDPNAPKRPPSAFFLFCSEYRPKIKGEHPGLSIGDVAKKLGEMWNNTAADDKQPYEKKAAKLKEKYEKDIAAYRAKGKPDAAKKGVVKAEKSKKKK
- migration-promoting activity [2, 5]: stronger migration-promoting activity than fragments 2-215 and 2-205

B8: 89-195: human HMGB1 fragment, positions 89 to 195, produced in E. coli (protein, UniProt P09429 89-195, looked up, fragment)
chain: FKDPNAPKRPPSAFFLFCSEYRPKIKGEHPGLSIGDVAKKLGEMWNNTAADDKQPYEKKAAKLKEKYEKDIAAYRAKGKPDAAKKGVVKAEKSKKKKEEEEDEEDEE
- migration-promoting activity [1]: exhibited stronger activity
- migration-promoting activity [2, 6]: stronger activity than any fragments between positions 89 and 215

B9: 89-215: human HMGB1 fragment, positions 89 to 215, produced in E. coli (protein, UniProt P09429 89-215, looked up, fragment)
chain: FKDPNAPKRPPSAFFLFCSEYRPKIKGEHPGLSIGDVAKKLGEMWNNTAADDKQPYEKKAAKLKEKYEKDIAAYRAKGKPDAAKKGVVKAEKSKKKKEEEEDEEDEEDEEEEEDEEDEDEEEDDDDE
- migration-promoting activity [2, 6]: weak migration-promoting activity

B10: 2-84: human HMGB1 fragment, positions 2 to 84, produced in E. coli (protein, UniProt P09429 2-84, looked up, fragment)
chain: GKGDPKKPRGKMSSYAFFVQTCREEHKKKHPDASVNFSEFSKKCSERWKTMSAKEKGKFEDMAKADKARYEREMKTYIPPKGE
- migration-promoting activity [1]: greater than human HMGB1 fragment (2-215)
- migration-promoting activity ([2]; fragment 2-84 and fusions with acidic tail fragments, produced in E. coli, FIG. 21D): exhibited migration-promoting activity
- migration-promoting activity [2, 3]: showed migration-promoting activity on bone marrow mesenchymal stem cells
- migration-promoting activity per equal mass, 2-215 taken as 1 [2, 4]: 5.5 times
- migration-promoting activity per molar concentration, 2-215 taken as 1 [2, 4]: 2.37 times
